One molecule from article PMC6415305 (Molecular cell, 2019) can be followed below.

For the assay, the target named is Recombinant His-tagged S6K1 T389E/S424D/S429D (S6K1*), in vitro translated (human, UniProt P23443-2 1-502, T389E | S424D | S429D). Kind of assay: SPR.
Sequence of Recombinant His-tagged S6K1 T389E/S424D/S429D (S6K1*), in vitro translated (P23443 24-525 T412E/S447D/S452D): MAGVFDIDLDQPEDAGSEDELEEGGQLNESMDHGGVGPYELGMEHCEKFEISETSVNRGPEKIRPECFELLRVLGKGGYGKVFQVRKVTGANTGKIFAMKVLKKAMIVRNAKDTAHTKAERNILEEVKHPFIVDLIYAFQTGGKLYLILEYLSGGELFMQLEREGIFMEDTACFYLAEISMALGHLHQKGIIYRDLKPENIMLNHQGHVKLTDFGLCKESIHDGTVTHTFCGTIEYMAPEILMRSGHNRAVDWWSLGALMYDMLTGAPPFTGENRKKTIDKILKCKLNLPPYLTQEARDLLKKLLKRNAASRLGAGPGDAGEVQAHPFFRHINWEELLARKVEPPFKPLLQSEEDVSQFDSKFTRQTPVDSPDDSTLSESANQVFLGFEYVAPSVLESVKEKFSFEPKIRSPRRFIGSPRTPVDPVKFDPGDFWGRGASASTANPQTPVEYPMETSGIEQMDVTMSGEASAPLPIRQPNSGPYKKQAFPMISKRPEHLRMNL

B1: EPRS linker (Pro683 to Asn1023 of human glutamyl-prolyl tRNA synthetase), His tag removed (domain or fragment, UniProt P07814 683-1023, looked up)
chain: PYEPVSPYSCKEAPCVLIYIPDGHTKEMPTSGSKEKTKVEATKNETSAPFKERPTPSLNNNCTTSEDSLVLYNRVAVQGDVVRELKAKKAPKEDVDAAVKQLLSLKAEYKEKTGQEYKPGNPPAEIGQNISSNSSASILESKSLYDEVAAQGEVVRKLKAEKSPKAKINEAVECLLSLKAQYKEKTGKEYIPGQPPLSQSSDSSPTRNSEPAGLETPEAKVLFDKVASQGEVVRKLKTEKAPKDQVDIAVQELLQLKAQYKSLIGVEYKPVSATGAEDKDKKKKEKENKSEKQNKPQKQNDGQRKDPSKNQGGGLSSSGAGEGQGPKKQTRLGLEAKKEEN
For the molecule B1, the Kd is 56 nM.
